Laboratory results: US20170000849A1, “CD300A RECEPTORS AS VIRUS ENTRY COFACTORS” (INSTITUT NATIONAL DE LA SANTE ET DE LA RECHERCHE MEDICALE …, priority 2013, published 2017)

Target: human CD300a expressed on Hek293T cells (HekCD300a) (human)
Assay: cell-based or functional assay

## goat polyclonal antibody to CD300a (AF2640)
  inhibition of DV2 JAM infection of HekCD300a cells (flow cytometry): 80%
